Reference: the DeepSol protein solubility set

Assay: soluble on expression in E. coli; label from the status in PepcDB or PDB records

For “MELLCHEVDPVRRAVRDRNLLRDDRVLQNLLTIEERYLPQCSYFKCVQKDIQPYMRRMVATWMLEVCEEQKCEEEVFPLAMNYLDRFLAGVPTPKSHLQLLGAVCMFLASKLKETSPLTAEKLCIYTDNSIKPQELLEWELVVLGKLKWNLAAVTPHDFIEHILRKLPQQREKLSLIRKHAQTFIALCATDFKFAMYPPSMIATGSVGAAICGLQQDEEVSSLTCDALTELLAKITNTDVDCLKACQEQIEAVLLNSLQQYRQDQRDGSKSEDELDQASTPTDVRDIDL”, the “soluble on expression in E. coli” value was “not soluble”.

For “MAKYTEWLTEEGLIKIEGWARDGLIDKQIAQNIGVAYSTFREWVKKFPALSASLKKGKEVVDRQVENALFKSATGYEYTEVTEELTENGMEITKKVKKQVAPNPTAAIFWLKNRKPDEWRDRKETEVSGVLNISDAAVEIEQFFEDDST”, the “soluble on expression in E. coli” value was “not soluble”.

For “MFRMPIVTMERVDSFSAAHRLHSEKLSDAENKETFGKCNNSNGHGHNYVWKVKLRGEVDPTSGMVYDLAKLKKEMSLVLDTVDHRNLDKDVEFFKTTVSTSENVAIYMFEKLKSVMSNPSVLYKVTIEETPKNIFTYKGC”, the “soluble on expression in E. coli” value was “not soluble”.

In the case of “MDLFKIEANYIDIFNKEIYPASIAIANGHIASIEKINATLDEYVLPGFIDAHIHIESSFLVPSNFAHLVVAHGTVATISDPHEIANVNGIDGINFMINNSKKTEFKFFFGAPSCVPALSQEFETSGYVLNDKDIDELMKLDDIYYLAEVMDFKGVINKDIEIINKINSALKRNKVVDGHAPGLSPNLTLKYASSGISTDHECLTIEDARYKLSLGMKILIREGSAAKNFESLHPLISECSKKYCDSLMFCFDDAHPNDILNGHINLIVARAIKHGHDFFDVLKIACINPVLHYKIPVGLLRIGDPADFIITKDIKTFKINKTYINGKLVFNDGISLIPLINEIPINNFNCSKKSISDFKFSTKNKMIPVIKCISNQIITHKTMIDSNLLAPDFQSNIAEDILKIAIINRYKDNSKISIGFIKNFGIRNGAIGSTVAHDSHNIILVGSNDEYLCKAANTIIQNKGGLCALNNEKTIIMELPISGLMSTLSAERVASQYIKLNDFCKNVLGSRLDDPLMTLSFMSLTVVPHLKINDKGLFDVDSFCFVDYLEHHHHHH”, the “soluble on expression in E. coli” value is reported as “not soluble”.

With “MGANGASGDHKQLKEIRIGIQQSLSPLLIAKEKGWFEDAFEKEGIKVKWVEFQSGPPQFEGLAADKLDFSQVGNSPVIAGQAAGIDFKEIGLSQDGLKANGILVNQNSGIQDVKGLKGKKIAVAKGSSGFDFLYKALDQVGLSANDVTIIQLQPDEAASAFENGSVDAWSIWEPYLSLETMKHGAKILVNGESTDLYSPGFTLVRTKFSEEHPDEVVRFLKVFNKAVVWQKEHLDEAADLYSDIKDLDKKVVENVLKNTEPLNEIISDDIVKAQQETADFQFRTKAIDKKIDVKDVVDNTFIKKALEEHSSGGDQLEHHHHHH” the “soluble on expression in E. coli” value was “soluble”.

For “MGSDKIHHHHHHMRNILIALCLSLTALNSHAADQIERMAADKMQSYKESKINWKDDPILPKGAKSALILGDPSKPGVFIAWLKFPANYPIPAHTHPFTEVITVLKGKLGNGMGEVLDKKKGETLNVGESFVLPAGHAHYVWTGNEETIIELIATGPWDITYSNPKDDPRTK”, the “soluble on expression in E. coli” value was “not soluble”.

In the case of “MSLELEQLTSNSIRPYIPKGTHPVETGKYLISTNEIDRMYQTVLQWIGNRIPGAIIYGRPRLGKTRAITYLMNCLPQDFGNNMPIYHVRCRTYKRPNENSFFEDLLLAVGHSIAIQGKANVKRNRLLKFLVERSDFSGTNKVVFFIDDAQRLVEIHYDWLMDLFNELEQYGITLTTILVGQKELVHQRSAFISGEKFQIVGRFMSQEYQFKGIKTPRDLKICLTGYDEYCEYPINSNWSFTKYFFADSFIRGLRLQNSAEELFQVFVDLRREHGLSQKVEIPMQHITLTVEYALKNFGIDNLDLTTIEKTHWEESIKNSGYIQSELYQTTEGHHHHHH”, the “soluble on expression in E. coli” value is reported as “not soluble”.

In the case of “GMEKLSAIKKPDINVADAWEQYWNKTLVNSTPVLWDANVERAVVVDLPRFELLFNPELPLIDFACGNGTQTKFLSQFFPRVIGLDVSKSALEIAAKENTAANISYRLLDGLVPEQAAQIHSEIGDANIYMRTGFHHIPVEKRELLGQSLRILLGKQGAMYLIELGTGCIDFFNSLLEKYGQLPYELLLVMEHGIRPGIFTAEDIELYFPDFEILSQGEGLFQSIHKLPDGNYATPPAFWAVIKHR”, the “soluble on expression in E. coli” value is reported as “soluble”.

In the case of “MGSDKIHHHHHHMPSIQELENFIIYGKVRNFTLAANQANITQSAFSFQMKKLEETLGVKLILRSNRGSSLTPEGEIFYKKISEILPELVGVIYEFQQINGEKAIELKVGVLTSLGDILMNQHVNYFQKNKNILITVYSMEKNELIRALNNGKIDIASTFLFDDETLENFEKSLFRKDKIVYYAPKIKEISGTIKRDNMLKVPLVKYPPDNFMNKMIDQYFNIERKMPTVAAKLPSPYAFIEYCKQDTAGAFITERLLNTLGFKYKQEYFNIDPPYEIKAFLLYKKENPKYSAIKIFTDYVVKLNQRDS”, the “soluble on expression in E. coli” value is reported as “not soluble”.

In the case of “MSLDTDRILRAFASLVQATLRTNYFVTRQGSARCRDVLALKLNAQLIDELPLPRPRYEIFVYSPRVEGVHLRFGPVARGGLRWSDRRDDFRTEILGLVKAQAVKNAVIVPVGAKGGFVVKRPPLPTGDPAADRDATRAEGVACYQLFISGLLDVTDNVDHATASVNPPPEVVRRDGDDAYLVVAADKGTATFSDIANDVAKSYGFWLGDAFASGGSVGYDHKAMGITARGAWEAVKRHFREIGIDTQTQDFTVVGIGDMSGDVFGNGMLLSKHIRLIAAFDHRHIFLDPNPDAAVSWAERRRMFELPRSSWSDYDRSLISEGGGVYSREQKAIPLSAQVRAVLGIDGSVDGGAAEMAPPNLIRAILRAPVDLLFNGGIGTYIKAESESDADVGDRANDPVRVNANQVRAKVIGEGGNLGVTALGRVEFDLSGGRINTDALDNSAGVDCSDHEVNIKILIDSLVSAGTVKADERTQLLESMTDEVAQLVLADNEDQNDLMGTSRANAASLLPVHAMQIKYLVAERGVNRELEALPSEKEIARRSEAGIGLTSPELATLMAHVKLGLKEEVLATELPDQDVFASRLPRYFPTALRERFTPEIRSHQLRREIVTTMLINDLVDTAGITYAFRIAEDVGVTPIDAVRTYVATDAIFGVGHIWRRIRAANLPIALSDRLTLDTREGHHHHHH”, the “soluble on expression in E. coli” value is reported as “not soluble”.

With “MSLKVHGVILMNIEEWEEYRYVEAGIKESITLIEDPGLKKMVEHVCHSGGKRIRPIILLLVSEICSGSYSRSLNAALAVEMMHSASLIHDDLLDQGLVRRNLPSAPEKFGPSGALLCGDYLIAKSIAFISPYGEKVIQDFGKAGMDMAEGEVLDLKLEDESFGENDYFKCIYKKTASLFAISASIGAYTGGAEEELAERFSHFGNALGTAYQIVDDILEFLEVVEGKESKFTSETLPHIYMKSTSKEEALKKSIDCVKLHVAAAKETLETFRECPARDKLFQITDYITVDMLENLEGHHHHHH” the “soluble on expression in E. coli” value was “soluble”.

With “MDESAALRAFQDALRTQRPEFGQFFLARLLGLDISYPDGQCLIVFEPQDFLFNPQGSLHGGIIATVMDISMGHLLNHVQGAGLTLEMKTQYLKAVHQGTVYCRGEFLQRGRSVSFLKSTLTDAQGEPLAMATSTWKALSPLEHHHHHH” the “soluble on expression in E. coli” value was “soluble”.

With “MLMAATIPHIETITFTDWFLAIIDTPDIPIDEIEIRVAEGFKRKLTERQFQQLTELIHLISFIKHKKISNPTLALRIYVDENTSSLSRTALVEAVRMLPPEDNKTYELAAYLAQKNKLERYTNITKVPPLQIYQGDGVFEQYDEWILLFELFGLTQATPSDFIPAIAHLLITKNLGIPDLRALSKFMSTTHKLGILSQSFMNNMTPHLCNGQIIEKYESLLLKLQINDLLTEEILEVIYPLLNQPDALDAFFSLYHEEPSHDSALSFLREILPSFCAMSLPSKESYDDQVPTNTPLHLAVIESDKGNLERTLAFANRNLLIKCSYENTALLLACKLADKESARLILAKMQELGCDVNQRDHHGMTALHWANFYHFDELIRELEIAGADPQLKAANGKTCEYFYQHQFTLKDLKLNGKEIIDGEFKLSDCALTDIAFHMDKIALNLKLTTPSEIAELYARDEIAQIRSSNRFYLFFKLFRPKLINWLEKQNDLEPQVTYRFSGQSSSA” the “soluble on expression in E. coli” value was “not soluble”.

In the case of “MGSSHHHHHHSSGLVPRGSTKVKYVDKIHIGNYEIDAWYFSPFPEDYGKQPKLWLCEYCLKYMKYEKSYRFHLGQCQWRQPPGKEIYRKSNISVHEVDGKDHKIYCQNLCLLAKLFLDHKTLYFDVEPFVFYILTEVDRQGAHIVGYFSKEKESPDGNNVACILTLPPYQRRGYGKFLIAFSYELSKLESTVGSPEKPLSDLGKLSYRSYWSWVLLENLRDFRGTLSIKDLSQMTSITQNDIISTLQSLNMVKYWKGQHVICVTPKLVEEHLKSAQYKKPPITVDSVCLKWAPPK”, the “soluble on expression in E. coli” value is reported as “soluble”.

With “MDGAQPKTNFFERLIARLAREPDSAEDVLNLLRQAHEQEVFDADTLLRLEKVLDFSDLEVRDAMITRSRMNVLKENDSIERITAYVIDTAHSRFPVIGEDKDEVLGILHAKDLLKYMFNPEQFHLKSILRPAVFVPEGKSLTALLKEFREQRNHMAIVIDEYGGTSGLVTFEDIIEQIVGEIEDEFDEDDSADNIHAVSSERWRIHAATEIEDINTFFGTEYSSEEADTIGGLVIQELGHLPVRGEKVLIGGLQFTVARADNRRLHTLMATRVK” the “soluble on expression in E. coli” value was “not soluble”.

In the case of “MGSDKIHHHHHHMADISIEQSMQLFELQPGKSLDLQINNPVSLRLKLPLIGYELGKYIILKYPKSANTSEYKDVLIEGNVLIVRYLMEGNKGECFAFRSSIKNITQYPEKFIFIEYPNKIENRQLRLQQRTSIHLPAIIMLESSGDNKKTQINGIIGDISAKGCGFTFKTKSTSTKVNKRDIFVCLRSPIDGEVQIPARVCNSRNDNGTVNVGIQFIDNEKLVPKLLSELFIENTMS”, the “soluble on expression in E. coli” value is reported as “not soluble”.

For “MMYPYVRLFMEMRRARRLDPLPVLGTHRSSHRCLPWDLAPWRELNNGRTLTLFDLGRAPLLVRTGMQRICSEKGWGMTVAGSSVRYRRRVVLMERLEMVSRCLGWDGRFFYMEQSLWRKGDCTSHMLLRAATTTGSGIVPPAEVAAALGAGESPPLPDWAQAWIEADALRPWPPAALEHHHHHH”, the “soluble on expression in E. coli” value was “not soluble”.

For “MAMNLLEDWCRGMEVDIHRSLLVTGIPEDCGQAEIEETLNGVLSPLGPYRVLNKIFVREENVKAALIEVGEGVNLSTIPREFPGRGGVWRVVCRDPTQDAEFLKNLNEFLDAEGRTWEDVVRLLQLNHPTLSQNQHQPPENWAEALGVLLGAVVQIIFCMDAEIRSREEARAQEAAEFEEMAAWALAAGRKVKKEPGLAAEVGSALKAETPNNWNATEDQHEPTKPLVRRAGAKSRSRRKKQKKNSRQEAVPWKKPKGINSNSTANLEDPEVGDAESMAISEPIKGSRKPCVNKEELALKKPMAKCAWKGPREPPQDARAEAESPGGASESDQDGGHESPPKKKAVAWVSAKNPAPMRKKKKVSLGPVSYVLVDSEDGRKKPVMPKKGPGSRREASDQKAPRGQQPAEATASTSRGPKAKPEGSPRRATNESRKV”, the “soluble on expression in E. coli” value was “soluble”.

For “SPMAVEEVIEMQGLSLDPTSHRVMAGEEPLEMGPTEFKLLHFFMTHPERVYSREQLLNHVWGTNVYVEDRTVDVHIRRLRKALEPGGHDRMVQTVRGTGYRFSTRF”, the “soluble on expression in E. coli” value was “soluble”.
